Among the data in US20230357429A1 (JANUX THERAPEUTICS, published 2023) are IC50, binding result and EC50 values, retold here.

Sequences and labels used below:
B1: Peptide-77 (peptide)
peptide: YLCGPDTDETLACY
modifications: cysteine pairing not given here; also: biotinylated, site not given here
notes: mask peptide for the CD3 scFv

For experiment [1], the target named is T1, TCE-37 (anti-CD3 scFv F104A; anti-TROP2 F108A).
T1 construct: scFv on the Fab heavy chain
Put plainly: competition ELISA, TCE on captured CD3. A general note: ELISA stands for enzyme-linked immunosorbent assay.

Another experiment has as its target T2, TBD-1 wt.
T2 construct: Fab; the heavy chain entry is VH-CH1; also called wild-type anti-TROP2 Fab (hRS7); TROP2 Fab
Put plainly: competition ELISA: peptide titrated and pre-incubated with a constant concentration of TBD-1, then added to plate-bound biotinylated TROP2; blocked ligand TROP2 (2.m7).

Experiment [2] concerns the target T3, Peptide-69 (cysteine pairing not given here; also: biotinylated, site not given here).
T3 construct: mask peptide for the CD3 scFv
T3 peptide: SECLVDLQSDPCYW
Put plainly: ELISA, TCE on captured biotin-peptide.

Another experiment has as its target T4, Peptide-65 (cysteine pairing not given here; also: biotinylated, site not given here).
T4 construct: mask peptide for the CD3 scFv
T4 peptide: QGCGTIADPEPHCW
Kind of experiment: ELISA, TCE on captured biotin-peptide.

In experiment [3] the target is T5, Peptide-75 (cysteine pairing not given here; also: biotinylated, site not given here).
T5 construct: mask peptide for the CD3 scFv
T5 peptide: GSACLGPEWEVCPY
Put plainly: ELISA, TCE on captured biotin-peptide.

The target of experiment [4] is T6, Peptide-72 (cysteine pairing not given here; also: biotinylated, site not given here).
T6 construct: mask peptide for the CD3 scFv
T6 peptide: AYCGPEFDESVGCM
Kind of experiment: ELISA, TCE on captured biotin-peptide.

Experiment [5] deals with T7, Peptide-68 (cysteine pairing not given here; also: biotinylated, site not given here).
T7 construct: mask peptide for the CD3 scFv
T7 peptide: DWCWYSPDNDGLCD
Put plainly: ELISA, TCE on captured biotin-peptide.

The target of experiment [6] is T8, Peptide-71 (cysteine pairing not given here; also: biotinylated, site not given here).
T8 construct: mask peptide for the CD3 scFv
T8 peptide: VDCGPDGDESILCY
Kind of experiment: ELISA, TCE on captured biotin-peptide.

In experiment [7] the target is T9, Peptide-74 (cysteine pairing not given here; also: biotinylated, site not given here).
T9 construct: mask peptide for the CD3 scFv
T9 peptide: ASQCLGPEWEVCPY
Put plainly: ELISA, TCE on captured biotin-peptide.

The target of experiment [8] is T10, CD3 (biotinylated CD3 antigen) (human, UniProt P07766 23-126, limits assumed, biotinylated (site not stated)).
T10 construct: also called CD3ε; human CD3
Put plainly: ELISA, TCE on captured biotin-CD3.

In experiment [9] the target is T11, Peptide-73 (cysteine pairing not given here; also: biotinylated, site not given here).
T11 construct: mask peptide for the CD3 scFv
T11 peptide: VYCGPEFDESVGCA
Kind of experiment: ELISA, TCE on captured biotin-peptide.

The experiment “Peptide-77” concerns the target B1. Put plainly: ELISA, TCE on captured biotin-peptide.
A further experiment deals with T12, Peptide-70 (cysteine pairing not given here; also: biotinylated, site not given here).
T12 construct: mask peptide for the CD3 scFv
T12 peptide: YLCGPDGDETLACY
Kind of experiment: ELISA, TCE on captured biotin-peptide.

In another experiment the target is T13, Peptide-76 (cysteine pairing not given here; also: biotinylated, site not given here).
T13 construct: mask peptide for the CD3 scFv
T13 peptide: YLCGPDADETLACY
Put plainly: ELISA, TCE on captured biotin-peptide.

For experiment [10], the target named is T3, Peptide-69. Put plainly: ELISA, TCE on captured biotin-peptide.
Experiment [11] deals with T11, Peptide-73. Put plainly: ELISA, TCE on captured biotin-peptide.
Experiment [12] has as its target T5, Peptide-75. Put plainly: ELISA, TCE on captured biotin-peptide.
Experiment [13] has as its target T14, Peptide-66 (cysteine pairing not given here; also: biotinylated, site not given here).
T14 construct: mask peptide for the CD3 scFv
T14 peptide: GSQCLGPEWEVCPY
Kind of experiment: ELISA, TCE on captured biotin-peptide.

In experiment [14] the target is T6, Peptide-72. Put plainly: ELISA, TCE on captured biotin-peptide.
Experiment [15] has as its target T7, Peptide-68. Kind of experiment: ELISA, TCE on captured biotin-peptide.
Experiment [16] addresses T8, Peptide-71. Kind of experiment: ELISA, TCE on captured biotin-peptide.
For another experiment, the target named is T15, Peptide-67 (cysteine pairing not given here; also: biotinylated, site not given here).
T15 construct: mask peptide for the CD3 scFv
T15 peptide: VYCGPEFDESVGCM
Kind of experiment: ELISA, TCE on captured biotin-peptide.

The target in experiment [17] is T9, Peptide-74. Put plainly: ELISA, TCE on captured biotin-peptide.
In experiment [18] the target is T10, CD3 (biotinylated CD3 antigen). Put plainly: ELISA: biotinylated CD3 captured on neutravidin plates, TCE titrated, HRP secondary antibody.
For experiment [19] the target is unchanged. Kind of experiment: ELISA, TCE on captured biotin-CD3. The source holds these as a separate data set.
Experiment [20] addresses T14, Peptide-66. Kind of experiment: ELISA, TCE on captured biotin-peptide.
For experiment [21], the target named is T16, Human TROP2 ECD (31-274 AA), biotinylated (human, UniProt P09758 31-274, biotinylated (site not stated)).
T16 construct: also called tumor-associated calcium signal transducer 2; Human TROP2-biotin
T16 sequence: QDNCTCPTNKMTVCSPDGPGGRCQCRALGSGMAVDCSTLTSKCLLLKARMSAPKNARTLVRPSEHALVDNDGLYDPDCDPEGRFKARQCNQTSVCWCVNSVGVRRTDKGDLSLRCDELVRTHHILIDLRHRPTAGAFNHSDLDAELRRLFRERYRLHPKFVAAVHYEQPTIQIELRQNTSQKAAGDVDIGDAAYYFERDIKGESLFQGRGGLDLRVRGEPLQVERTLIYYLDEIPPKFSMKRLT
Put plainly: ELISA on immobilized TROP2.

Like-named read-outs stand apart in the source and are kept apart here. Where no end group is shown, it is not given here.

Broadly, the IC50 is the midpoint of a concentration-inhibition curve. Molecule B1 yielded an IC50 in experiment [1] of 8870 nM.

B2: Peptide-15 (peptide)
peptide: LDFCKLYQWPVCFT
With B2, the binding result with TBD-1 wt was “binds”.

B3: TCE-11 (anti-CD3 scFv H101A; anti-TROP2 wt) (bispecific antibody)
light: DIQLTQSPSSLSASVGDRVSITCKASQDVSIAVAWYQQKPGKAPKLLIYSASYRYTGVPDRFSGSGSGTDFTLTISSLQPEDFAVYYCQQHYITPLTFGAGTKVEIKRTVAAPSVFIFPPSDEQLKSGTASVVCLLNNFYPREAKVQWKVDNALQSGNSQESVTEQDSKDSTYSLSSTLTLSKADYEKHKVYACEVTHQGLSSPVTKSFNRGEC
heavy: not shown
notes: scFv on the Fab heavy chain; also called TCE-11 (H101A)
As usually defined, the EC50 is the concentration at which the effect is half-maximal. Lower therefore signals greater potency. As to B3, the concentration giving a half-maximal response (EC50) came out at 6.94 nM in the experiment with Peptide-69 [2]; 6.92 nM with Peptide-65; 1.05 nM with Peptide-75 [3]; 1.36 nM with Peptide-72 [4]; 60.9 nM in the experiment with Peptide-68 [5]; 1.28 nM with Peptide-71 [6]. The molecule further gave an EC50 with Peptide-74 [7] of 0.83 nM.

B4: TCE-13 (anti-CD3 scFv N103A; anti-TROP2 wt) (bispecific antibody)
light: DIQLTQSPSSLSASVGDRVSITCKASQDVSIAVAWYQQKPGKAPKLLIYSASYRYTGVPDRFSGSGSGTDFTLTISSLQPEDFAVYYCQQHYITPLTFGAGTKVEIKRTVAAPSVFIFPPSDEQLKSGTASVVCLLNNFYPREAKVQWKVDNALQSGNSQESVTEQDSKDSTYSLSSTLTLSKADYEKHKVYACEVTHQGLSSPVTKSFNRGEC
heavy: not shown
notes: scFv on the Fab heavy chain; also called TCE-13 (N103A)
On to B4, for which the EC50 in experiment [8] worked out at 1.69 nM; in the experiment with Peptide-69 [2] it was 1.69 nM; with Peptide-65, 2.71 nM; with Peptide-71 [6] it was 0.34 nM; with Peptide-74 [7] it was 0.36 nM.

B5: TCE-36 (anti-CD3 scFv H101A; anti-TROP2 F108A) (bispecific antibody)
light: DIQLTQSPSSLSASVGDRVSITCKASQDVSIAVAWYQQKPGKAPKLLIYSASYRYTGVPDRFSGSGSGTDFTLTISSLQPEDFAVYYCQQHYITPLTFGAGTKVEIKRTVAAPSVFIFPPSDEQLKSGTASVVCLLNNFYPREAKVQWKVDNALQSGNSQESVTEQDSKDSTYSLSSTLTLSKADYEKHKVYACEVTHQGLSSPVTKSFNRGEC
heavy: not shown
notes: scFv on the Fab heavy chain
In the case of B5, the EC50 with Peptide-73 [9] is 4.11 nM; with Peptide-77 it was 1620 nM; with Peptide-70, 0.59 nM; with Peptide-76, 166 nM.

B6: TCE-33 (anti-CD3 scFv F240A; anti-TROP2 wt) (bispecific antibody)
light: DIQLTQSPSSLSASVGDRVSITCKASQDVSIAVAWYQQKPGKAPKLLIYSASYRYTGVPDRFSGSGSGTDFTLTISSLQPEDFAVYYCQQHYITPLTFGAGTKVEIKRTVAAPSVFIFPPSDEQLKSGTASVVCLLNNFYPREAKVQWKVDNALQSGNSQESVTEQDSKDSTYSLSSTLTLSKADYEKHKVYACEVTHQGLSSPVTKSFNRGEC
heavy: not shown
notes: scFv on the Fab heavy chain; also called TCE-33 (F240A)
For the molecule B6, the half-maximal effective concentration (EC50) is 0.76 nM with Peptide-69 [10]; 8.15 nM with Peptide-73 [11]; 9.2 nM with Peptide-75 [12]; 8.02 nM in the experiment with Peptide-66 [13]; 5.78 nM with Peptide-72 [14]; 7.71 nM with Peptide-68 [15]. For the same molecule, the EC50 was 21.7 nM in the experiment with Peptide-71 [16]; 5.78 nM with Peptide-67; 5.9 nM with Peptide-74 [17]; 0.601 nM in [18]; 1.24 nM in experiment [19].

B7: TCE-14 (anti-CD3 scFv F104A; anti-TROP2 wt) (bispecific antibody)
light: DIQLTQSPSSLSASVGDRVSITCKASQDVSIAVAWYQQKPGKAPKLLIYSASYRYTGVPDRFSGSGSGTDFTLTISSLQPEDFAVYYCQQHYITPLTFGAGTKVEIKRTVAAPSVFIFPPSDEQLKSGTASVVCLLNNFYPREAKVQWKVDNALQSGNSQESVTEQDSKDSTYSLSSTLTLSKADYEKHKVYACEVTHQGLSSPVTKSFNRGEC
heavy: not shown
notes: scFv on the Fab heavy chain; also called TCE-14 (F104A)
Turning to B7, the EC50 in [8] is 0.83 nM; with Peptide-69 [2], 1.93 nM; with Peptide-65, 1.52 nM; with Peptide-75 [3], 0.88 nM; in the experiment with Peptide-66 [20], 0.63 nM; with Peptide-74 [7], 0.66 nM.

B8: PC-4 (bispecific antibody)
light: not shown
heavy: GGIDFCMLYNWPICAGGGGGSSGGSAAGLLAPPGGLSGRSDAGGGGSQVQLQQSGSELKKPGASVKVSCKASGYTFTNYGMNWVKQAPGQGLKWMGWINTYTGEPTYTDDFKGRFAFSLDTSVSTAYLQISSLKADDTAVYFCARGGFGSSYWYFDVWGQGSLVTVSSASTKGPSVFPLAPSSKSTSGGTAALGCLVKDYFPEPVTVSWNSGALTSGVHTFPAVLQSSGLYSLSSVVTVPSSSLGTQTYICNVNHKPSNTKVDKKVEPKSC
notes: anti-TROP2 wt
In [21], B8 displayed an EC50 of 32.8 nM.

B9: PC-2 (bispecific antibody)
light: GGIDFCMLYNWPICAGGGGGSSGGSAAGLLAPPGGLSGRSDAGGGGSDIQLTQSPSSLSASVGDRVSITCKASQDVSIAVAWYQQKPGKAPKLLIYSASYRYTGVPDRFSGSGSGTDFTLTISSLQPEDFAVYYCQQHYITPLTFGAGTKVEIKRTVAAPSVFIFPPSDEQLKSGTASVVCLLNNFYPREAKVQWKVDNALQSGNSQESVTEQDSKDSTYSLSSTLTLSKADYEKHKVYACEVTHQGLSSPVTKSFNRGEC
heavy: not shown
notes: anti-TROP2 wt
In turn, B9 registered a concentration for a half-maximal effect (EC50) in experiment [21] of 78.5 nM.

B10: PC-3 (bispecific antibody)
light: GGVDFCKIYSWPVCHQGGGGSSGGSAAGLLAPPGGLSGRSDAGGGGSDIQLTQSPSSLSASVGDRVSITCKASQDVSIAVAWYQQKPGKAPKLLIYSASYRYTGVPDRFSGSGSGTDFTLTISSLQPEDFAVYYCQQHYITPLTFGAGTKVEIKRTVAAPSVFIFPPSDEQLKSGTASVVCLLNNFYPREAKVQWKVDNALQSGNSQESVTEQDSKDSTYSLSSTLTLSKADYEKHKVYACEVTHQGLSSPVTKSFNRGEC
heavy: not shown
notes: anti-TROP2 wt
Consider B10, for which, in experiment [21], the midpoint of the response, the EC50, lay at 64.6 nM.
